Test results reported in PMC10700143.

Tests used:
[1] = target: HKU1-A spike protein ectodomain (strain Caen1), trimeric, furin cleavage site mutated, with GCN4 trimerization motif (human coronavirus HKU1 (serotype A, strain Caen1)); experiment: cryo-EM structure; 3 µM wild-type or W89A spike trimer with 300 µM 9-O-acetylated disialoside, incubated at room temperature for about 10 min before vitrification; single-particle analysis
[2] = target: HKU1-A spike protein ectodomain (strain Caen1), trimeric, furin cleavage site mutated, with GCN4 trimerization motif (human coronavirus HKU1 (serotype A, strain Caen1)); experiment: cryo-EM structure; apo: 4.3 µM HKU1 spike trimer without ligand, applied to grids at 4 °C; single-particle analysis, C3 symmetry imposed
[3] = target: W89A mutant HKU1-A spike protein ectodomain (human coronavirus HKU1 (serotype A)); experiment: cryo-EM structure; 3 µM wild-type or W89A spike trimer with 300 µM 9-O-acetylated disialoside, incubated at room temperature for about 10 min before vitrification; single-particle analysis

## HKU1-A spike protein ectodomain (strain Caen1), trimeric, furin cleavage site mutated, with GCN4 trimerization motif (domain or fragment)
[1]
  stoichiometry N: 3
[2]
  stoichiometry N: 3

## W89A mutant HKU1-A spike protein ectodomain (domain or fragment)
[3]
  stoichiometry N: 3
